Values quoted from earlier work as cited in article PMC3113340.

Target: IL-1ra (Homo sapiens) (UniProt P18510)
UniProt P18510, sequence (P18510 26-177): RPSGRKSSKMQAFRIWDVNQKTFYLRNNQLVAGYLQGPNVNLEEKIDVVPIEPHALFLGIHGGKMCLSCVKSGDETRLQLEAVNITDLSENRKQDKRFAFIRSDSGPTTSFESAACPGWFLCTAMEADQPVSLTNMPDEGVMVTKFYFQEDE

- Kd: 0.014 nM
Substance: soluble IL-1RI ECD (from UniProt P14778)
